Test results taken from the supplement of paper PMC9112550, “Optimization of the antimicrobial peptide Bac7 by deep mutational scanning” (BMC Biology, 2022).

tested on: Escherichia coli TOP10; assay: shrunken log2 fold change of peptide-encoding DNA abundance (4.5 h post-induction vs induction); higher = less antimicrobial activity (less host growth inhibition); details: time post-induction: 4.5 h; library: site-saturation at positions 5, 18, 19, 20
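Further: peptides expressed intracellularly from a pBAD plasmid library in pooled LB shake-flask culture, induced with 0.3% L-arabinose, DNA abundance read by NGS, three biological replicates, DESeq2 with apeglm shrinkage.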

Row | Sequence | shrunken log2 fold change
1 | RRIRARPPRLPRPRPRPFKTPRP | 0.0511
2 | RRIRARPPRLPRPRPRPFLKPRP | -0.349
3 | RRIRARPPRLPRPRPRPFNAPRP | -0.307
4 | RRIRARPPRLPRPRPRPFPLPRP | -0.0297
5 | RRIRARPPRLPRPRPRPFQGPRP | 0.0242
6 | RRIRARPPRLPRPRPRPFQNPRP | -0.124
7 | RRIRARPPRLPRPRPRPFQRPRP | -0.0439
8 | RRIRARPPRLPRPRPRPFQSPRP | 0.105
9 | RRIRARPPRLPRPRPRPFSDPRP | -0.169
10 | RRIRARPPRLPRPRPRPFTLPRP | -0.543
11 | RRIRARPPRLPRPRPRPFVMPRP | -0.181
12 | RRIRARPPRLPRPRPRPFWPPRP | 0.412
13 | RRIRARPPRLPRPRPRPFWSPRP | 0.061
14 | RRIRARPPRLPRPRPRPFWVPRP | -0.0841
15 | RRIRARPPRLPRPRPRPFYCPRP | -0.402
16 | RRIRARPPRLPRPRPRPFYIPRP | -0.309
17 | RRIRARPPRLPRPRPRPGCAPRP | 0.947
18 | RRIRARPPRLPRPRPRPGDLPRP | 0.796
19 | RRIRARPPRLPRPRPRPGDSPRP | 0.339
20 | RRIRARPPRLPRPRPRPGEEPRP | 0.999
21 | RRIRARPPRLPRPRPRPGFFPRP | 0.509
22 | RRIRARPPRLPRPRPRPGGFPRP | 0.518

Row | Sequence | shrunken log2 fold change
23 | RRIRARPPRLPRPRPRPGGLPRP | 0.936
24 | RRIRARPPRLPRPRPRPGHTPRP | 0.129
25 | RRIRARPPRLPRPRPRPGIQPRP | -0.041
26 | RRIRARPPRLPRPRPRPGKTPRP | 0.312
27 | RRIRARPPRLPRPRPRPGLCPRP | 0.553
28 | RRIRARPPRLPRPRPRPGLFPRP | 0.601
29 | RRIRARPPRLPRPRPRPGLPPRP | 0.709
30 | RRIRARPPRLPRPRPRPGMGPRP | 0.639
31 | RRIRARPPRLPRPRPRPGMRPRP | 0.545
32 | RRIRARPPRLPRPRPRPGNSPRP | -0.108
33 | RRIRARPPRLPRPRPRPGPAPRP | 0.873
34 | RRIRARPPRLPRPRPRPGRSPRP | 0.206
35 | RRIRARPPRLPRPRPRPGRVPRP | 0.612
36 | RRIRARPPRLPRPRPRPGRWPRP | 0.609
37 | RRIRARPPRLPRPRPRPGSVPRP | 0.301
38 | RRIRARPPRLPRPRPRPGTNPRP | 0.204
39 | RRIRARPPRLPRPRPRPGVHPRP | 0.243
40 | RRIRARPPRLPRPRPRPHDCPRP | -0.16
41 | RRIRARPPRLPRPRPRPHDDPRP | -0.0805
42 | RRIRARPPRLPRPRPRPHDEPRP | -0.00385
43 | RRIRARPPRLPRPRPRPHDWPRP | 0.295
44 | RRIRARPPRLPRPRPRPHFQPRP | 0.0811

Row | Sequence | shrunken log2 fold change
45 | RRIRARPPRLPRPRPRPHHDPRP | -0.0472
46 | RRIRARPPRLPRPRPRPHHYPRP | -0.223
47 | RRIRARPPRLPRPRPRPHIIPRP | -0.0334
48 | RRIRARPPRLPRPRPRPHIPPRP | -0.671
49 | RRIRARPPRLPRPRPRPHKHPRP | 0.0909
50 | RRIRARPPRLPRPRPRPHKLPRP | 0.214
51 | RRIRARPPRLPRPRPRPHKNPRP | 0.0543
52 | RRIRARPPRLPRPRPRPHMTPRP | -0.0862
53 | RRIRARPPRLPRPRPRPHMWPRP | -0.000358
54 | RRIRARPPRLPRPRPRPHPSPRP | 0.327
55 | RRIRARPPRLPRPRPRPHPWPRP | -0.00896
56 | RRIRARPPRLPRPRPRPHSLPRP | 0.314
57 | RRIRARPPRLPRPRPRPHSTPRP | 0.0355
58 | RRIRARPPRLPRPRPRPHVTPRP | 0.0281
59 | RRIRARPPRLPRPRPRPHWAPRP | -0.0191
60 | RRIRARPPRLPRPRPRPICPPRP | 0.0597
61 | RRIRARPPRLPRPRPRPICRPRP | 0.349
62 | RRIRARPPRLPRPRPRPIDAPRP | 0.0272
63 | RRIRARPPRLPRPRPRPIDGPRP | 0.00408
64 | RRIRARPPRLPRPRPRPIDHPRP | -0.00706
65 | RRIRARPPRLPRPRPRPIDLPRP | 0.289
66 | RRIRARPPRLPRPRPRPIDPPRP | 0.00727

Row | Sequence | shrunken log2 fold change
67 | RRIRARPPRLPRPRPRPIGPPRP | 0.537
68 | RRIRARPPRLPRPRPRPIHTPRP | 0.0197
69 | RRIRARPPRLPRPRPRPIKCPRP | -0.249
70 | RRIRARPPRLPRPRPRPIKEPRP | -0.0357
71 | RRIRARPPRLPRPRPRPIKFPRP | -0.126
72 | RRIRARPPRLPRPRPRPIMYPRP | -0.161
73 | RRIRARPPRLPRPRPRPINRPRP | 0.0108
74 | RRIRARPPRLPRPRPRPIPDPRP | 0.604
75 | RRIRARPPRLPRPRPRPIQNPRP | 0.376
76 | RRIRARPPRLPRPRPRPIQSPRP | -0.035
77 | RRIRARPPRLPRPRPRPIQTPRP | -0.0208
78 | RRIRARPPRLPRPRPRPIRCPRP | 0.188
79 | RRIRARPPRLPRPRPRPISPPRP | -0.141
80 | RRIRARPPRLPRPRPRPIVTPRP | 0.155
81 | RRIRARPPRLPRPRPRPIWHPRP | 0.331
82 | RRIRARPPRLPRPRPRPIWPPRP | 0.353
83 | RRIRARPPRLPRPRPRPIYRPRP | -0.0972
84 | RRIRARPPRLPRPRPRPIYSPRP | -0.227
85 | RRIRARPPRLPRPRPRPIYWPRP | 0.0177
86 | RRIRARPPRLPRPRPRPKAKPRP | 0.287
87 | RRIRARPPRLPRPRPRPKANPRP | 0.297
88 | RRIRARPPRLPRPRPRPKDCPRP | 0.181

Row | Sequence | shrunken log2 fold change
89 | RRIRARPPRLPRPRPRPKEGPRP | -0.00115
90 | RRIRARPPRLPRPRPRPKFEPRP | 0.574
91 | RRIRARPPRLPRPRPRPKFLPRP | 0.288
92 | RRIRARPPRLPRPRPRPKFPPRP | 2.15
93 | RRIRARPPRLPRPRPRPKGDPRP | -0.07
94 | RRIRARPPRLPRPRPRPKGQPRP | 0.296
95 | RRIRARPPRLPRPRPRPKHCPRP | 0.0395
96 | RRIRARPPRLPRPRPRPKHGPRP | 0.246
97 | RRIRARPPRLPRPRPRPKIWPRP | 0.53
98 | RRIRARPPRLPRPRPRPKLAPRP | 0.555
99 | RRIRARPPRLPRPRPRPKLQPRP | 0.64
100 | RRIRARPPRLPRPRPRPKLWPRP | 1
101 | RRIRARPPRLPRPRPRPKMWPRP | 0.553
102 | RRIRARPPRLPRPRPRPKNIPRP | -0.127
103 | RRIRARPPRLPRPRPRPKNPPRP | 0.196
104 | RRIRARPPRLPRPRPRPKNTPRP | -0.0664
105 | RRIRARPPRLPRPRPRPKQKPRP | 0.529
106 | RRIRARPPRLPRPRPRPKSHPRP | -0.184
107 | RRIRARPPRLPRPRPRPKTYPRP | -0.214
108 | RRIRARPPRLPRPRPRPLAPPRP | 0.619
109 | RRIRARPPRLPRPRPRPLCIPRP | -0.143
